Key:
Experiment in all cases: two-hybrid library CCNG1;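 further: natural log of median RNA to DNA barcode read ratio; higher means stronger binding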
4H3129-bH = target: T1, 4H3129-bH
T1 chain: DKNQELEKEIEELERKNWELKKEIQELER

4H850-bH = target: T2, 4H850-bH
T2 chain: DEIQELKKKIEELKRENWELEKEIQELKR

4H3172-bH = target: T3, 4H3172-bH
T3 chain: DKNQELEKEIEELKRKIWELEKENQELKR

4H3414-bH = target: T4, 4H3414-bH
T4 chain: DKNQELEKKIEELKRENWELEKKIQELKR

4H584-bH = target: T5, 4H584-bH
T5 chain: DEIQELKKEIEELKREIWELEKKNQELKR

4H3638-bH = target: T6, 4H3638-bH
T6 chain: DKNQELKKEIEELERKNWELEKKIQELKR

4H906-bH = target: T7, 4H906-bH
T7 chain: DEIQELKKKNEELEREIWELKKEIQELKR

4H3974-bH = target: T8, 4H3974-bH
T8 chain: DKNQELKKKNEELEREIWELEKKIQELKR

4H3817-bH = target: T9, 4H3817-bH
T9 chain: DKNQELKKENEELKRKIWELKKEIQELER

4H619-bH = target: T10, 4H619-bH
T10 chain: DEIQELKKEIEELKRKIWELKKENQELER

4H570-bH = target: T11, 4H570-bH
T11 chain: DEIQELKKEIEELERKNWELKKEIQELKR

4H3631-bH = target: T12, 4H3631-bH
T12 chain: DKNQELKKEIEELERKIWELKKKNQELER

4H949-bA = target: T13, 4H949-bA
T13 chain: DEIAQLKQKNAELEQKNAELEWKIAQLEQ

4H796-bA = target: T14, 4H796-bA
T14 chain: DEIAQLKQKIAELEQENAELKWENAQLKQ

4H932-bA = target: T15, 4H932-bA
T15 chain: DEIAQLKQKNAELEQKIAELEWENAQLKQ

O3-bS = target: T16, O3-bS
T16 chain: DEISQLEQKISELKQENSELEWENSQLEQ

4H741-bN = target: T17, 4H741-bN
T17 chain: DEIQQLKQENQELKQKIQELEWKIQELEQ

O2-bS = target: T18, O2-bS
T18 chain: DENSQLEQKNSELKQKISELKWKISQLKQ

P9A-bN = target: T19, P9A-bN
T19 chain: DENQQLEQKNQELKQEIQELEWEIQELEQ

P8A-bN = target: T20, P8A-bN
T20 chain: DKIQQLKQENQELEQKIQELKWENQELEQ

P7A-bN = target: T21, P7A-bN
T21 chain: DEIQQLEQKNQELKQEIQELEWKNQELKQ

P9mSN = target: T22, P9mSN
T22 chain: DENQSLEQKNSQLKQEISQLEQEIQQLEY

O5-bS = target: T23, O5-bS
T23 chain: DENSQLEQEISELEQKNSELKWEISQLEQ

O6-bS = target: T24, O6-bS
T24 chain: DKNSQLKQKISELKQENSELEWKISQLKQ

O9-bS = target: T25, O9-bS
T25 chain: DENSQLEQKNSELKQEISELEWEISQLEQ

O8-bS = target: T26, O8-bS
T26 chain: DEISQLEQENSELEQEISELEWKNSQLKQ

O7-bS = target: T27, O7-bS
T27 chain: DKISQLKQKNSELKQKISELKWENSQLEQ

O4-bS = target: T28, O4-bS
T28 chain: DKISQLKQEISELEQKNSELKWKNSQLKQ

4H349-bH = target: T29, 4H349-bH
T29 chain: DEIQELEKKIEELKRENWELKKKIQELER

4H949-bH = target: T30, 4H949-bH
T30 chain: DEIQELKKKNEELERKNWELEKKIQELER

4H2859-bH = target: T31, 4H2859-bH
T31 chain: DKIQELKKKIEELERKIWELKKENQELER

4H264-bH = target: T32, 4H264-bH
T32 chain: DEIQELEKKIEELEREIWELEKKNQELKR

4H3297-bH = target: T33, 4H3297-bH
T33 chain: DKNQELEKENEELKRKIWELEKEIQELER

4H56-bH = target: T34, 4H56-bH
T34 chain: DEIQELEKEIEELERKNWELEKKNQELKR

4H2585-bH = target: T35, 4H2585-bH
T35 chain: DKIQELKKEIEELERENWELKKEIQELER

4H3041-bH = target: T36, 4H3041-bH
T36 chain: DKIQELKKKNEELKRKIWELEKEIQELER

4H4001-bH = target: T37, 4H4001-bH
T37 chain: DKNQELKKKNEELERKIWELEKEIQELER

4H3381-bH = target: T38, 4H3381-bH
T38 chain: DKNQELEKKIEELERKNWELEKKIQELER

4H796-bH = target: T39, 4H796-bH
T39 chain: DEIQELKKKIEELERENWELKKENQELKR

4H730-bH = target: T40, 4H730-bH
T40 chain: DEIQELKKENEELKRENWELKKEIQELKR

4H2931-bH = target: T41, 4H2931-bH
T41 chain: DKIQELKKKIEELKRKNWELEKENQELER

4H3364-bH = target: T42, 4H3364-bH
T42 chain: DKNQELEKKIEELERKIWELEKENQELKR

4H477-bN = target: T43, 4H477-bN
T43 chain: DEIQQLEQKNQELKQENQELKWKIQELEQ

4H2760-bH = target: T44, 4H2760-bH
T44 chain: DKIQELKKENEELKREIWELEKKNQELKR

4H932-bH = target: T45, 4H932-bH
T45 chain: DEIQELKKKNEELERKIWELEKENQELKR

4H953-bH = target: T46, 4H953-bH
T46 chain: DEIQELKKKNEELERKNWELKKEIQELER

4H607-bH = target: T47, 4H607-bH
T47 chain: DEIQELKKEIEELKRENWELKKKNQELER

4H462-bH = target: T48, 4H462-bH
T48 chain: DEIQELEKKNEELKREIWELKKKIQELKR

4H2697-bH = target: T49, 4H2697-bH
T49 chain: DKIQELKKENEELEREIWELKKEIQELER

4H3606-bH = target: T50, 4H3606-bH
T50 chain: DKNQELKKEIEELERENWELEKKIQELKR

4H3843-bH = target: T51, 4H3843-bH
T51 chain: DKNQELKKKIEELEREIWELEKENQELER

4H918-bH = target: T52, 4H918-bH
T52 chain: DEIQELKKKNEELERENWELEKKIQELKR

4H72-bH = target: T53, 4H72-bH
T53 chain: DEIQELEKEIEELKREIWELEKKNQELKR

4H967-bH = target: T54, 4H967-bH
T54 chain: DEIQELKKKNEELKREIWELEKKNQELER

4H568-bH = target: T55, 4H568-bH
T55 chain: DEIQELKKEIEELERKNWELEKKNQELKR

4H3782-bH = target: T56, 4H3782-bH
T56 chain: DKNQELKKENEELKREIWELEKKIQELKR

4H331-bH = target: T57, 4H331-bH
T57 chain: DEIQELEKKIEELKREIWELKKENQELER

4H370-bH = target: T58, 4H370-bH
T58 chain: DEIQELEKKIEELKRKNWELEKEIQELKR

4H883-bH = target: T59, 4H883-bH
T59 chain: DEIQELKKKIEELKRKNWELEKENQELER

4H687-bH = target: T60, 4H687-bH
T60 chain: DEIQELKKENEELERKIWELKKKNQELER

4H3189-bH = target: T61, 4H3189-bH
T61 chain: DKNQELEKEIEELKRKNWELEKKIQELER

4H797-bH = target: T62, 4H797-bH
T62 chain: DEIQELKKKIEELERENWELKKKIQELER

4H3961-bA = target: T63, 4H3961-bA; conditions: mean of both orientations
T63 chain: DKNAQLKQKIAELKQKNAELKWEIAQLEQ

4H470-bA = target: T64, 4H470-bA
T64 chain: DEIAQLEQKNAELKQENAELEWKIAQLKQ

DKNQELEKEIEELERKNWELKKEIQELER [4H3129-bH]
interaction score (4H3129-bH): -2.16
interaction score (4H850-bH): 0.17
interaction score (4H3172-bH): -0.227
interaction score (4H3414-bH): 1.62
interaction score (4H584-bH): -0.445
interaction score (4H3638-bH): -1.18
interaction score (4H906-bH): -0.384
interaction score (4H3974-bH): -0.348
interaction score (4H3817-bH): -0.197
interaction score (4H619-bH): -0.44
interaction score (4H570-bH): -1.61
interaction score (4H3631-bH): -0.645

DEIAQLKQKIAELEQENAELKWENAQLKQ [4H796-bA]
interaction score (4H949-bA): -0.898
interaction score (4H796-bA): 0.961
interaction score (4H932-bA): -0.164
interaction score (O3-bS): -0.947

DKNQELEKEIEELKRKIWELEKENQELKR [4H3172-bH]
interaction score (4H850-bH): -0.531
interaction score (4H3172-bH): 0.448
interaction score (4H3414-bH): 0.693
interaction score (4H584-bH): -1.68
interaction score (4H3638-bH): -0.13
interaction score (4H906-bH): -0.821
interaction score (4H3974-bH): 0.353
interaction score (4H3817-bH): -0.475
interaction score (4H619-bH): -1.22
interaction score (4H570-bH): 0.871
interaction score (4H3631-bH): 0.994

DEIQQLKQENQELKQKIQELEWKIQELEQ [4H741-bN]
interaction score (4H741-bN): 1.19
interaction score (O2-bS): -3.38

DEIQQLEQKNQELKQEIQELEWKNQELKQ [P7A-bN]
interaction score (P9A-bN): -1.19
interaction score (P8A-bN): 2.12
interaction score (P7A-bN): 0.344

DKNQQLKQEIQELEQENQELEWKIQELKQ [P6A-bN]
interaction score (P9A-bN): 0.0031
interaction score (P8A-bN): -0.195
interaction score (P7A-bN): 0.204
interaction score (P9mSN): -0.239

DENSQLEQKNSELKQKISELKWKISQLKQ [O2-bS]
interaction score (O5-bS): -2.56
interaction score (O2-bS): -0.754
interaction score (O6-bS): -1.1
interaction score (O9-bS): -1.59
interaction score (O8-bS): -2.49
interaction score (O7-bS): -0.412
interaction score (O4-bS): -1.49

DKIQELKKEIEELERENWELKKEIQELER [4H2585-bH]
interaction score (4H349-bH): 1.63
interaction score (4H949-bH): -0.693
interaction score (4H2859-bH): 0.965
interaction score (4H264-bH): -0.751
interaction score (4H3297-bH): -0.417
interaction score (4H56-bH): 0.21
interaction score (4H2585-bH): -0.17
interaction score (4H3041-bH): 0.00364
interaction score (4H4001-bH): -0.0821
interaction score (4H3381-bH): -0.48
interaction score (4H796-bH): -0.9
interaction score (4H730-bH): -0.529
interaction score (4H2931-bH): -0.336
interaction score (4H3364-bH): -0.536
interaction score (4H477-bN): -0.435
interaction score (4H2760-bH): 0.55
interaction score (4H932-bH): -1.27

DKIQELKKENEELEREIWELKKEIQELER [4H2697-bH]
interaction score (4H953-bH): -0.201
interaction score (4H607-bH): -0.619
interaction score (4H462-bH): -0.915
interaction score (4H2697-bH): 0.402
interaction score (4H3606-bH): -1.34
interaction score (4H3843-bH): -0.103
interaction score (4H918-bH): -0.619
interaction score (4H72-bH): -1.97
interaction score (4H967-bH): 0.26
interaction score (4H568-bH): -1.4
interaction score (4H3782-bH): 0.502
interaction score (4H4001-bH): -0.578
interaction score (4H331-bH): 0.0266
interaction score (4H370-bH): -0.895
interaction score (4H883-bH): -0.628
interaction score (4H687-bH): -0.768
interaction score (4H3189-bH): -0.0723
interaction score (4H797-bH): -0.611

DKNAQLKQKIAELKQKNAELKWEIAQLEQ [4H3961-bA]
interaction score (4H3961-bA): -1.09
interaction score (4H470-bA): -0.153

DEIAQLEQKNAELKQENAELEWKIAQLKQ [4H470-bA]
interaction score (4H470-bA): 0.201

— article PMC10397247
